{
  "source": "patent US20040197853A1",
  "data": [
    {"substance": "MTCS (enzyme)", "values": [
      {"measurement": "In vitro Reactivity with IgE", "setting": "monoclonal IgE antibody", "result": "< 5", "unit": "%"},
      {"measurement": "In vitro Reactivity with IgG", "setting": "IgG antibody", "result": "< 5", "unit": "%"}
    ]}
  ]
}
